The values below come from doi:10.1101/2020.10.04.325654.

What all share (experiment): ELISA
In general terms: ELISA stands for enzyme-linked immunosorbent assay.

Assay [1] concerns the target His-tagged ASH/RhoGAP domain of OCRL (536aa-901aa) (human) (UniProt Q01968).
For assay [2] the target is unchanged. The source holds these as a separate data set.
Assay [3] has the same target. The source holds these as a separate data set.

Read-outs that look alike come from different tables or passages of the source.

Sequence of His-tagged ASH/RhoGAP domain of OCRL (536aa-901aa) (human) (Q01968 536-901): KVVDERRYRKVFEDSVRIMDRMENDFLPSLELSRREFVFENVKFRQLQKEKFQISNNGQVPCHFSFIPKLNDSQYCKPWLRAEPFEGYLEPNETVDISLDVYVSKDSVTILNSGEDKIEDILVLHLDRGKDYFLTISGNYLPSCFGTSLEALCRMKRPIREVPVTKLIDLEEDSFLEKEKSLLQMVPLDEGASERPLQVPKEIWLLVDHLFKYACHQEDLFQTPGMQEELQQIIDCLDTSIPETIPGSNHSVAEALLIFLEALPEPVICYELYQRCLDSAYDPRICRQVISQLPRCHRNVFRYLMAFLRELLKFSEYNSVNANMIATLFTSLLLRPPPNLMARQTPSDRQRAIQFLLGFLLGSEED

As for “GST-SdhA-CBM2A (from UniProt Q6RCQ3 1029-1080) (domain or fragment)”, the EC50 in assay [1] is 0.0272 µM; in assay [2], 0.0081 µM.
On to “GST-SdhA-CBM2 (from UniProt Q6RCQ3 1029-1260) (domain or fragment)”, for which the figures for the EC50 in assay [1] and in assay [3] were 0.0807 µM and 0.0874 µM, respectively.

Usually EC50 stands for the concentration giving half of the maximal effect. Higher therefore signals lower potency in that assay.
